Measured values as given in article PMC9599700, “Biochemical and Structural Characterization of Chi-Class Glutathione Transferases: A Snapshot on the Glutathione Transferase Encoded by sll0067 Gene in the Cyanobacterium Synechocystis sp. Strain PCC 6803” (Biomolecules, 2022).

T1: SynGSTC1 (Sll0067) (Synechocystis sp. PCC 6803, UniProt Q55139)
T1 construct: gene gst; Ni-NTA and size exclusion; about 180 residues; two-fold dimer in crystal
T1 sequence (Q55139 1-184): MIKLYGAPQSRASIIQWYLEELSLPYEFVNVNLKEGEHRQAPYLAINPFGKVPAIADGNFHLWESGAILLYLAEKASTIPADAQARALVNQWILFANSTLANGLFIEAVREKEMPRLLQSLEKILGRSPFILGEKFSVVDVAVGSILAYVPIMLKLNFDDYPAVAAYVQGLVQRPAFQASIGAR

T2: SynGSTC1 (Sll0067) (Synechocystis sp. PCC 6803, UniProt Q55139, S10C)
T2 construct: gene gst; Ni-NTA and size exclusion; about 180 residues; two-fold dimer in crystal
T2 sequence (Q55139 1-184 S10C): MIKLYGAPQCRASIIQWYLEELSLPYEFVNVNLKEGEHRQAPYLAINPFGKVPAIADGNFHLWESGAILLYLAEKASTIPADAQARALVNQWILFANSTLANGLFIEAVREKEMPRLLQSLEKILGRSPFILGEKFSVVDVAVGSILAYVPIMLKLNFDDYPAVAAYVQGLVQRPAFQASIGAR


Legend:
[1] = target: T1, SynGSTC1 (Sll0067); test: GSH-conjugation assay, spectrophotometric […] nm, Michaelis-Menten fit; assay type: biochemical; settings: fixed saturating GSH; 30 mM Tris-HCl pH 8.0, 1 mM EDTA; 25 °C
[2] = target: T1, SynGSTC1 (Sll0067); test: as above; assay type: biochemical; settings: fixed saturating GSH; 100 mM phosphate pH 6.5; 25 °C
[3] = target: T2, SynGSTC1 (Sll0067); test: NADPH/glutathione reductase-coupled thiol-transferase assay, […] nm; assay type: biochemical; settings: fixed saturating GSH; 200 µM NADPH; 30 mM Tris-HCl pH 8.0; 25 °C; read-out: HED
[4] = target: glutathione transferase chi1 from Synechocystis sp. PCC 6803 (SynGSTC1), wild-type (Synechocystis sp. PCC 6803); test: crystal structure; co-crystallised with 10 mM glutathione and 1 mM TCEP, microbatch under oil at 4 °C; space group P4(3)2(1)2, two polypeptide chains in the asymmetric unit
[5] = substrate: CC(C)(OO)c1ccccc1; test: purified protein; settings: fixed GSH, 200 µM NADPH, 30 mM Tris-HCl pH 8.0, 25 °C
[6] = substrate: CCCC(=O)Oc1ccc([N+](=O)[O-])cc1; test: purified protein; assay type: biochemical, Synechocystis sp. PCC 6803; settings: fixed saturating GSH, 30 mM Tris-HCl pH 8.0, 1 mM EDTA, 25 °C
[7] = substrate: S=C=NCCc1ccccc1; test: purified protein; assay type: biochemical, Synechocystis sp. PCC 6803; settings: fixed saturating GSH, 100 mM phosphate pH 6.5, 25 °C

Row | Molecule | Km [7] [µM] | kcat [7] [s⁻¹] | kcat/Km [7] [M⁻¹ s⁻¹] | other results
1 | O=[N+]([O-])c1ccc(Cl)c([N+](=O)[O-])c1 [1-chloro-2,4-dinitrobenzene] | – | – | – | Km [1]: 3790 ± 772 µM
2 | S=C=NCc1ccccc1 [benzyl-isothiocyanate] | – | – | – | Km [2]: 82 ± 10 µM
3 | OCCSSCCO [2-hydroxyethyl disulfide] | – | – | – | Km [3]: 3.3 ± 0.4 µM
4 | glutathione transferase chi1 from Synechocystis sp. PCC 6803 (SynGSTC1), wild-type (enzyme) | – | – | – | stoichiometry N [4]: 2
5 | SynGSTC1 (Sll0067) (Synechocystis sp. PCC 6803 substr. Kazusa) (protein, Ni-NTA and size exclusion; about 180 residues; two-fold dimer in crystal) MIKLYGAPQSRASIIQWYLEELSLPYEFVNVNLKEGEHRQAPYLAINPFGKVPAIADGNFHLWESGAILLYLAEKASTIPADAQARALVNQWILFANSTLANGLFIEAVREKEMPRLLQSLEKILGRSPFILGEKFSVVDVAVGSILAYVPIMLKLNFDDYPAVAAYVQGLVQRPAFQASIGAR | 33.8 ± 2.5 | 12.6 ± 0.2 | 373000 ± 6000 | Km [5]: 1508.0 ± 191.0 µM; kcat [5]: 0.91 ± 0.06 s⁻¹; Km [6]: 162.5 ± 18.3 µM; kcat [6]: 0.48 ± 0.2 s⁻¹
6 | SynGSTC1 (Sll0067) (Synechocystis sp. PCC 6803 substr. Kazusa; S10A) (protein, Ni-NTA and size exclusion; about 180 residues; two-fold dimer in crystal) MIKLYGAPQARASIIQWYLEELSLPYEFVNVNLKEGEHRQAPYLAINPFGKVPAIADGNFHLWESGAILLYLAEKASTIPADAQARALVNQWILFANSTLANGLFIEAVREKEMPRLLQSLEKILGRSPFILGEKFSVVDVAVGSILAYVPIMLKLNFDDYPAVAAYVQGLVQRPAFQASIGAR | 89.7 ± 6.4 | 2.6 ± 0.05 | 28900 ± 600 | –
7 | SynGSTC1 (Sll0067) (Synechocystis sp. PCC 6803 substr. Kazusa; S10T) (protein, Ni-NTA and size exclusion; about 180 residues; two-fold dimer in crystal) MIKLYGAPQTRASIIQWYLEELSLPYEFVNVNLKEGEHRQAPYLAINPFGKVPAIADGNFHLWESGAILLYLAEKASTIPADAQARALVNQWILFANSTLANGLFIEAVREKEMPRLLQSLEKILGRSPFILGEKFSVVDVAVGSILAYVPIMLKLNFDDYPAVAAYVQGLVQRPAFQASIGAR | 33.6 ± 2.6 | 7.2 ± 0.1 | 214000 ± 4000 | –
8 | SynGSTC1 (Sll0067) (Synechocystis sp. PCC 6803 substr. Kazusa; S10C) (protein, Ni-NTA and size exclusion; about 180 residues; two-fold dimer in crystal) MIKLYGAPQCRASIIQWYLEELSLPYEFVNVNLKEGEHRQAPYLAINPFGKVPAIADGNFHLWESGAILLYLAEKASTIPADAQARALVNQWILFANSTLANGLFIEAVREKEMPRLLQSLEKILGRSPFILGEKFSVVDVAVGSILAYVPIMLKLNFDDYPAVAAYVQGLVQRPAFQASIGAR | 33.0 ± 3.0 | 1.19 ± 0.02 | 36000 ± 600 | –
9 | SynGSTC1 (Sll0067) (Synechocystis sp. PCC 6803 substr. Kazusa; R11A) (protein, Ni-NTA and size exclusion; about 180 residues; two-fold dimer in crystal) MIKLYGAPQSAASIIQWYLEELSLPYEFVNVNLKEGEHRQAPYLAINPFGKVPAIADGNFHLWESGAILLYLAEKASTIPADAQARALVNQWILFANSTLANGLFIEAVREKEMPRLLQSLEKILGRSPFILGEKFSVVDVAVGSILAYVPIMLKLNFDDYPAVAAYVQGLVQRPAFQASIGAR | 108.4 ± 6.0 | 0.17 ± 0.003 | 1530 ± 20 | –
